According to paper doi:10.1101/2022.10.14.512215 (bioRxiv, 2022):
“And” between values parts separate entries of the source, which are not always exact repeats. Equal entries are not always repeated.

B1: RIP2K^1-317 (kinase domain of human RIP2, residues 1-317) (domain or fragment)
chain: MNGEAICSALPTIPYHKLADLRYLSRGASGTVSSARHADWRVQVAVKHLHIHTPLLDSERKDVLREAEILHKARFSYILPILGICNEPEFLGIVTEYMPNGSLNELLHRKTEYPDVAWPLRFRILHEIALGVNYLHNMTPPLLHHDLKTQNILLDNEFHVKIADFGLSKWRMMSLSQSRSSKSAPEGGTIIYMPPENYEPGQKSRASIKHDIYSYAVITWEVLSRKQPFEDVTNPLQIMYSVSQGHRPVINEESLPYDIPHRARMISLIESGWAQNPDERPSFLKCLIELEPVLRTFEEITFLEAVIQLKKTKLQSV
B2: XIAP BIR2^93-263 (domain or fragment)
chain: GPINGFYLENSATQSTNSGIQNGQYKVENYLGSRDHFALDRPSETHADYLLRTGQVVDISDTIYPRNPAMYSEEARLKSFQNWPDYAHLTPRELASAGLYYTGIGDQVQCFCCGGKLKNWEPCDRAWSEHRRHFPNCFFVLGRNLNIRSESDAVSSDRNFPNSTNLPRNPSMA
B3: XIAP BIR2^154-240 (domain or fragment)
chain: YPRNPAMYSEEARLKSFQNWPDYAHLTPRELASAGLYYTGIGDQVQCFCCGGKLKNWEPCDRAWSEHRRHFPNCFFVLGRNLNIRSE
B4: XIAP BIR2AG^154-240 (domain or fragment)
chain: YPRNPAMYSEEARLKSFQNWPDYAHLTPRELASAGLYYTGIGDQVQCFACGGKLKNWEPGDRAWSEHRRHFPNCFFVLGRNLNIRSE
B5: XIAP BIR2^124-263 (domain or fragment)
chain: GPRDHFALDRPSETHADYLLRTGQVVDISDTIYPRNPAMYSEEARLKSFQNWPDYAHLTPRELASAGLYYTGIGDQVQCFCCGGKLKNWEPCDRAWSEHRRHFPNCFFVLGRNLNIRSESDAVSSDRNFPNSTNLPRNPSMA
B6: XIAP BIR2^124-240 (domain or fragment)
chain: GPRDHFALDRPSETHADYLLRTGQVVDISDTIYPRNPAMYSEEARLKSFQNWPDYAHLTPRELASAGLYYTGIGDQVQCFCCGGKLKNWEPCDRAWSEHRRHFPNCFFVLGRNLNIRSE
B7: XIAP BIR2AG^124-240 (domain or fragment)
chain: GPRDHFALDRPSETHADYLLRTGQVVDISDTIYPRNPAMYSEEARLKSFQNWPDYAHLTPRELASAGLYYTGIGDQVQCFACGGKLKNWEPGDRAWSEHRRHFPNCFFVLGRNLNIRSE
B8: XIAP BIR2^93-240 (domain or fragment)
chain: GPINGFYLENSATQSTNSGIQNGQYKVENYLGSRDHFALDRPSETHADYLLRTGQVVDISDTIYPRNPAMYSEEARLKSFQNWPDYAHLTPRELASAGLYYTGIGDQVQCFCCGGKLKNWEPCDRAWSEHRRHFPNCFFVLGRNLNIRSE

Assays:
native MS = biological target: the molecule itself; assay: native MS
[1] = biological target: RIP2K^1-300 (kinase domain of human RIP2, residues 1-300) (human, UniProt O43353 1-300); assay: MST
[2] = biological target: B1; assay: native MS
[3] = biological target: B1; assay: cryo-EM structure
[4] = biological target: B1; assay: NMR translational diffusion

| Binder | binding result [1] | stoichiometry N [2] | further results |
| --- | --- | --- | --- |
| B1 |  |  | stoichiometry N (native MS): 2 |
| B2 | binds |  |  |
| B3 |  | 1 RIP2K per XIAP BIR2 (2:2) | stoichiometry N [3]: 2 RIP2K per XIAP BIR2 (2:1); Kd [1]: 85.6 ± 18.7 nM |
| B4 |  | 2 RIP2K per XIAP BIR2 (2:1) and 1 RIP2K per XIAP BIR2 (2:2) |  |
| B5 | binds |  |  |
| B6 |  | 1 RIP2K per XIAP BIR2 (2:2) and 2 RIP2K per XIAP BIR2 (2:1) |  |
| B7 |  | 1 RIP2K per XIAP BIR2 (2:2) | stoichiometry N [4]: 2 RIP2 per BIR2 (1:2 BIR2:RIP2) |
| B8 | binds |  |  |
